Test [1] addresses FcγRIIb on the cell surface (UniProt P31994). The test can be described thus: binding to cell-surface FcγRIIb (cells and method not stated).
For test [2], the target named is recombinant human FcγRIIb (human) (UniProt P31994). The test can be described thus: SPR (Biacore), global Langmuir fit. Background: In SPR one partner is held on a chip, and binding of the other changes the refractive index at the surface.

In general, EC50 refers to the concentration needed to bring the measured effect to its halfway point. Low values mean greater potency, high ones weaker potency. One may read the Kd as the equilibrium constant for the complex coming apart. In test [1], S239D/S267E (antibody) returned an EC50 of 2 nM and a Fold (cell surface EC50 against native IgG1) of 220 fold. Further, in test [2], the Fold (KD(Native IgG1)/KD(variant)) turned out to be 150 fold and the Kd turned out to be 12 nM.

(Values after WO2011097527A2.)
